# According to a protein production outcome set (Wang et al. 2014):
# Assay: label from the status in PepcDB records
row,Sequence,protein production
1,MNRSDKWQQRVAQVAYRFNQQYQNQSLELPAEVQEMPIYREWISGILAGKIASPFWEMAQPQKNQHCLDIGCGVSFLIYPWRDWQAFFYGQDVSNVARDTLNSRGSQLNSKLFKGVELGAAHQLKYTLSYFDLAIATGFSCYFPLEYWTSVLQAVKRVLKPDGHFVFDILNAAHPQAEDWAVLETYLGAEVFLEPVTEWEKIINAAGAKVVGRQPGEFFDLYKLRLEHHHHHH,failed
2,MNRTKKRALTVRIVKTAISVALAAVIVVAMVLVNPQLSTNKLISSLMGYNHQSVDNGNASAGDADTNYYTADYTKENIRKAEDKLYDQIASEGTVLLKNDDNELPAQKGTTFSFFSANSVDGSSLTQGYLGTPETVTLKSAFTAAGFKVNETLWNYYESGAGKDYGLATGSVNYGDGEDFRINEAPLAALRKESGLLDSVRGTTPVYVLNRVVGEGRDMPRSMYNHADKQEDKEKSYIELDSTETEIIKYLNDNYKDVILLVKSSAAMELGWVADYPNIKAVVYSQNVTNALAKVFSGEVNPSGKTVDTFAADALASPAAQNFGSYQYYDGNGNATKYNYVDYAEGIYVGYKYYETRYEDKVLGQGNAGDYDYATEVVYPFGYGLSYTDFKWSDFSVATDGDDFVATVTVKNTGDVAGKDVVELYAQTPYTDYDKRNAVEKAAVNLVGYGKTAELEPGASETVKITFGKDQLKSYDYKGAKTYILDAGQYRFTAASDANQAINNILADKGKGMADGMTAEGDKAMVSSWTPENTDVDTTTFATDDATGKAIANLFDAASDPEVTYLTRSDWTGTFPKHYGESSGEINTWGNEINCKDSDGNNASCTWKKTASDELIKQLDGNDSGSTVDKSTITDTPTFGKSNGLKVSDMRGLDYDDEQWDKLLDELTEDDYNQLVYFSGYGVDYIKSVEKPFQTDADAATGWFYGGTGKAFPSIMMLTQTWNASLAEDLGVMMGNEALLGGANGWYAPAMNIHRTPFSGRNGEYYSEDGFMSGSMASLEVKGAATKGVYSYIKHFALNDQENHRGDRPGNFSVATWSNEQAIRETYLKPFDMCMHLGDMDMKTVVKKSDGTYENKTVTTPIAKGVMTSFNRLGATWTGGNYALIQQLLRDEWGFNGLIITDNANTSKFMSPYQMLEAGADIKLLNVSEDPTGEQLDFNDAATYHYARQAMHHLLYTVANSNCMNGALPGAGFTFYNQMKVMQIAFNAICGVILALLAFFSVWRWLPGTIKRVAARKETRAAKKAARKAAKA,failed
3,MNSAALKSCLERENALVVEFLHALEAETEALMDRRAHESLQAAVQRKETLADDLAQLGAERDALLSGAGLASGPAGTDAAAAAHPELGPLWQALQANAAQAREHNQRNGTLIAVNLRHTQESLDALRQAAGTGAAATYDAQGRGKRGYSSA,not failed
4,MNSAPFLIFGGILAWLFVYFLRLRRFYAGEFLLGLFIFGIAITIQSIIQKASLVWFNVHAKLLISLWLGFLAGFIQEGIKYIFVKGMTPYKGAMVGLGFGIAEVILLAVVATLAGSSNVPLYLLVASATERFFAVVFHVASTSLLASSNLRIFLGVFTVHGLVDTLASYSQLSRVLNTPKVFLIEAVFGVFALFLLLISLPRIRVEKEEGPKW,failed
5,MNSFYSQEELKKIGFLSVGKNVLISKKASIYNPGVISVGNNVRIDDFCILSGKVTIGSYSHIAAYTALYGGEVGIEMYDFANISSRTIVYAAIDDFSGNALMGPTIPNQYKNVKTGKVILKKHVIIGAHSIIFPNVVIGEGVAVGAMSMVKESLDDWYIYVGVPVRKIKARKRKIVELENEFLKSMNSLEHHHHHH,failed
6,MNSKFKGIIFMILASAAFATMNLLSKLAVGVNSYQKTFLTNVVATLIVCFIIAYKKGSFFGKKESRKYLLVRGVTGTLSILTNYYALDKMFLSDATILTKLAPFFTIIFSYLLISEKITKKQFTLLIVAFAGSLFVIKPQFSTAIIPSLIGVASAAFAGIAYTMIRVIGDKEDFWTIILSFTSIATIVMLPSMFMNTDNLTLQNILLLVSAGIAFTLGQVALTIAYKNAPASEISMYDYIGLIIAAIYGFMFFKEIPDFLSFTGYIIIVGSSLLNILGNKKTSNKEINEDSSLVSTD,failed
7,MNSKNTICLWYDSAALEAATFYAETFPDSAVLAVHRAPGDYPSGKEGDVLTVEFRVMGIPCLGLNGGPAFRHSEAFSFQVATDDQAETDRLWNAIVDNGGEESACGWCRDKWGISWQITPRVLSEAIASPDRAAARRAFEAMMTMGRIDIATIEKAFKG,not failed
8,MNSLPIADLLASAVIAACIVISTMRGVIAEAGSMVAWVVSFFFAKLFAAPFADLAFASFQPRLFALALSFISLFVIACLIQKMLRSLLTGAVSAVGLGFANRILGGVFGALKGVLIVTLLIMLASKTDLPDTEEWQQSYTVPFFVSLSEAVLNHTDNAPESLDDD,failed
9,MNSPAHALTKPRRRTPRRAVRLARRALVGLTAAAILAGTGMGWVTYHGALDGITTSNALAGESGSVGDTENILIMGLDSRLDQHGNPLPEDVYQALHAGDETVGGYNANVLIVVHLPGDGGPATAFSIPRDDYVDLAGCPSGICKGKVKQAYGFAYQAEMEATESEEEDPATREQKAREAGRKAEIATVRNLLGIPIDHFVEVTLGAFFEIAKAVAPITVCLNDDTSDPYSGADFRKGVQQIDAAQAMAFVRQRRDINDENFTDLDRTRRQQAFLAALVSALRQSGALSSPSKLRGLLDVTKQNVALDAGFDLASFTKRASALTDAPPTLYTLPIKEFGQNAYGEDINIIDVPTIRKIVHDLVSKDDPATTTATPDKPELNGHGATLDVINGSTYTGLAAKLQTTFAADNFTEGQIGDAEALEPATTIDYGPGADAAAHSLATELGVTATPSDWVLADTVRLTIGTDFPGTDYLGADMFTSTTSGASESESYGPSETAELTPITTVAATATGTYTPAPTDLSQMTASGIPCVK,failed
10,MNSPETTWTEENSSCALHLHWYALCERKDLVANSGVVAWLDGKQLALFYLPDTAQGEQLFAIDNRDPKSGANVIGRGLTGQIAGELVIASPLYKQHFRLHDGSCIEYPEQRLEVWPVRLNGERVEIAV,failed
11,MNSPSHLEVREGADINLYNQILIPLYGADIRDSVVQYGLSLAETYDAALHVLYIQDEERTEVESDQVTKQEEWDAAAVIEPVVDQAHSLGLNVIPAVDSGHSPGVIREYAEENDIDLLVHQKPTQTRLARILRRDVSSHIIQNISLPVLTIPDMDPSDPVGELSTSQFTDILVPTDGYDEASVAFKHGLQIAKRYDATLHGLFIISEQSYSSRPGFTWEEVTDSWEQRGTRLLEDITEKAATLDVPVRTTLRFGQPQQEILKYTEVTDIDLVTMGTRGLTGIRRLLQGSVAAQVIEEADYPVLTINRRTAELKKHPYTFLRKTNQNRKSRLY,failed
12,MNSRAADQLELDGLPGTPPDFYRERQRSRVERYQSPAGAPLQCSVQVQTTQEHPLWTSHVWSGARALADTLCWQPELIAGKTVCELGAGAGLVSIVAFLAGADQVVATDYPDPEILNSLESNIREHTANSCSSETVKRASPKVVPYRWGDSPDSLQRCTGLQRFQVVLLADLLSFHQAHDALLRSVKMLLALPANDPTAVALVTFTHHRPHLAERDLAFFRLVNADGALIAEPWLSPLQMDPMFPDDPGDVCIRGQVHRWRLRWRSAASASANIPAHARNE,not failed
13,MNSSIVNAGIDPQVRESLKSFVGEAIDYANTSGKDAAIAKFNDQNGTFVRGNLYVYAFDYNGTTLALPYQPQLIGTDLSGLQDPYGVNYTKVEIFLEHHHHHH,failed
14,MNSTIIIVGILALVFIFLVFGVSSKPLRFIGKALFHVTLGVALLFIVNVVGTYFDFHLPINLGTATITSLLGLPGVAALVVIKLYIMPR,failed
15,MNTARANRENGAGNIYIGFGDSQLSLMDSHQARPEPVHTVCSKPPLKRPPSREEHLRQRLVKTIHSQRIISGKNRLSNPPRMANPQANSIIGISTYFGPTN,failed
16,MNTIDIAKSYITAIQTGDHATLGSIISPDVIWHQPGNHQFSGTHRGMAVVGPMLGKMMEVSNGTFAISRADDYMASGDWVAITLEFSGQANGVTLKQAGVDLLRIEDGKIVEVRLFSADQTQEDAFWGR,not failed
17,MNTIKLKKNALFNPEGDTDLRHRRMIGGNTTNLNDFNNMRYKWVSDWYRQAMNNFWIPEEINLTQDTKDYPHLDQAERTAYDKILSFLVFLDSLQSNNLPTISEYITANEVNLCLHIQAFQECVHSQSYSYMLDSICSPEKRNEILYQWKTDGHLLKRNTFIGNCYNEFQESQDGFTLMKTLIANYILEGIYFYSGFMFFYNLSRNGKMSGSAQEIRYINRDENTHLWLFRNIILELKKEEPDLFTPDKVKIYEYMMREGVKQEIEWGQYVIGDNIQGLNRKMIEDYIQYLGNLRWSSLGFGPLYEENHKEPESMHWVSQYSNANMVKTDFFEAKSTAYAKSTALEDDL,failed
18,MNTKPVLVILGPTASGKTELAFRIARQTGGEIISADSRQIYRGMDIGTAKPPRWMLDEVKHHFIDKKEIGEPFSAGDFAEQAAEKIRELHQRGITPVVAGGSTLYLEGLLKGFAELPPADPEIRAQLTRELERHGAEALYRRLEALDPEQAKTLDPTKTQRLIRSLEIIEISGTTVTALQSKTPGPPTGINFTVIGLDLPRELLYERINQRTSAMIQAGLEAEARYLFDKFRDEWRSKNLNALATVGYRELFEHFEELHDLDTAVSLIAQHTRNYAKRQLTFFRNRLDVEWVKAPLDEAEIEALVEFFSTRQDDSVPHSPIAIAKKQNA,failed
19,MNTMEKKTNIHAEDGKQDLLISREFDLPVELLFKAYTEPEFVEQWMGTTVLKLENKKHGSYQFETTDPKGNKHGFNGTIHEFVPDKKITRTFEMDNTPFPIQLEFLVFEKTTETTSKLNMHVIYKSVTDRDNILKLPFAQGINMAHNRIQELPTKLK,failed
20,MNTMLNPHYQQIWQTVQLIPQGKVACYGQIADLAGLPGRARLVGKSLGKVPKDGWRGQRVPWFRVINSQGKISFPPGSENFDKQKHHLQDEQVVVIGSRIKLKEFQWKPDLSELLFSLEFLEHHHHHH,failed
21,MNTMVELRKLIVFLLSFTFLLYLLYVGINISKKLRIRRSPFFLMISGVGLITLGTFLDAIDKFIDVGIKNVIAACFTFGAILFVVFIIFLSNNFVCTVSLLYEDANMDKMTGAYNRKGINEIFQRSIAKQNSFYLMLFDLDETKRLNDKYGHAVGDKYIIGASAIIKDTIGNKGFVGRIGGDEFIALLKLENEVDVEKIKKLIKDQFCESFKQYGANISIGYSRFKEDGQEFEEIFQIADKNMYDDKKSNKKNKACF,failed
22,MNTPSRTHLVIIPSYNPGPKVYETVQAARRYWNPVWVVVDGSTDGTWEGLLKLSAEDSGLVVLGMPANRGKGAAVLRGLLTSRRKGFTHALVMDSDGQHPADRIPEFMARSQEEPDAMILGVPVFDDSAPSLRVKGRRISNWWANLETLWCGIGDSLFGFGVYPIQALCVIMQDHQWMRRFDFDPEAAVRLCWAGIRPVNLPVPVYYPKPEEGGTSHFHYWRDNALLTWMHVRLMFGFLARLPILLARIVRRPEILEHHHHHH,failed
23,MNTSDRIKSTQIALDRDLREQALLLLKEVRAVDGVDALSEQFVRGLAEPGLGHSHLIVTLNDKLVGLAATDEETTELAVHPAHRRQGIGKALIDAT,failed
24,MNTSHSSPSNTLLWQSLGLGLLALLLFCAGADHQSAIGFDSRFVLFAKEMLRHGPGFFPTTYGQPYADYSSASTLLVWLFSLPGGQVTSLTAWLPTAIASALIVSLIYRLLAPYSRTWALLSVALLLLSNTFISETRAVSLDQMLAAVSLAVFYLGYAHDHFGTRRRLGWIFLLLVLGFAIRGPIGLVIPTGMLCSYYLLNGQWRRLFSVGFSALALLVACVGLLLWLAKLSGGQAFVDDVIRMQFMGRMDGSEGSSDVFYYFTSSLGNYALAYPLAILAWLAVLLTRATEQGPGLKLLRLCTAAGLIVMIGLSIPQAKKARYLLPMLPMAAIIAAYPFQAGRGRLLAWLRGAIQGLWLLLPGLLIIGLLVLRRKFPEQLDSLTPMLLVLGLLQLLSLGLLFKRQWRAVGLAYSAVLAVWACYIGVFEPVEHRLYDTRTFSHSAMQLIEADPAPVVLHRMGKDAKAIKFMVNLDRDLQPQFTESPDALAQVPGPAWVILDQSDLASLQNTPLADLKPVLSGRFDKNDFVLLHLTGPTAAQP,failed
